Assay: soluble on expression in E. coli; label from the status in PepcDB or PDB records

Question: For “MSLLFNTEDLKAIFQEVSLNPSDRLVCNNSNTIYLWQDNILRVQSDHETQYRSYNVELPFVPEQMVISPSGGLVAFHANSELYVMEVNEQSRLRKHFNTSLGIKKLLWHPLATYGLSFVILHDDSTIRIYDLEDLEPESITVFNRKSRSFGLSDHVESVCDIAFDPTGLTLYLLSSFNYCDIYAIHPCLPKNFSLRSNDTSNVTSRTKNGSLADYMLHKSLSLYNSLDKQLKLISGSDPDVESDYLTLKHDLLKQIQFFDNYKKNDGIDTFTSKAIRNSVPQGPFIIKKFPTALNAKEVTGLTIIPVGERLGLLNLQFIDGTNVVLFSDSEIVMSWSLRSNTTFNNLSVITMFNAKGQCQLLNSSEPKLVFTGDSSTTIMEMPWLEPLAQCIRLHDFSIIDDVKFENKIRTVSGTFLGVLSTLSGDILYNGNSFKVIESNDKSTTQKPINRTDEVKYTYKPSLPTSGKELDMLLTKYKTEANGFISGIPDSLAPLPLKNEGHHHHHH”, which “soluble on expression in E. coli” value is on record?
Answer: Its value is “soluble”.

Question: With “MKSIYITGYMGAGKTTIGKALSKELHMDVVDTDQKIEEKQGKVIRDIFAEEGEMAFREYESEMLCSLPVDNVIITTGGGIVEREENRKWMKENGTVVYLYCDPHVIAERLREDTTRPLFQKKDIDAFVTKFESRRAYYEEAHIHIDTTNKSVKQIMNELKEKINE” as the sequence, how does the “soluble on expression in E. coli” value read?
Answer: Its value is “not soluble”.

Question: Which “soluble on expression in E. coli” value does the source give for “MDSSSISSLLEDLKHSDALVREQATKKLWRIWFQQKGMYGLEKIDQSQKLLDAGEITEAEVMLTQLIQEQPDFAEAWNRRAFLYYSMGEYQKSLADCQMVIQINPVHFGALHGIGLCYAALGKYAKAIKAFKRALEIQPYSLVNQKLILECTFRLSLEHHHHHH” here?
Answer: Its value is “not soluble”.

Question: For “MRPSAPNIWIWKVSNLASDPRETVSGEWYAARSNLSSAARLRHGGTLLLVLDAKDNHVITKAEIKAVEISHRVGTIPREIHFPDGSLFETSDNEGVDRLLGLYLPKRAGFVHRLEQFRPRLIGITAAAVLLAYGTYKLALPAVVELAVAMTPPIVPKIMSASTMQALDQTVFSASELPLEEQNAIRVQFSRIAAHAEGSPEDYKLNFRKGGYIGPNAFALPDGTLVLTDELVELAGGDRQMIIGVLAHEIGHVEYEHSLRQLYRAAGVAGLVMLIAGDVGSAMEDILTQGGGLLALSHSRDAERQADQRSVELMRKADLDPTAIERFFALLEEKLGDKGGTSIISTHPGTPQRRKAIIDYNASLDNKPAGNLEHHHHHH”, which “soluble on expression in E. coli” value is on record?
Answer: Its value is “not soluble”.

Question: With “MGSDKIHHHHHHMIKRAVEIVRQRGVGVLIKKIPPYIYQQVWPYLPSAGYTYKNGIKSCERGRVLDQFLPKYITQYATHQPSYESQYIEAIRRHVTEGQDVVLVGGGEGISTVVAANQVQRTGEVTVFEGAAEEARKSQVVVEINEVSDRTTVHHTIVSEDVSLRSAASGAEVLPSAELPSCDVLAIDADGAEISILDGIVNHPAVLIVEHHAVADTSGLALEYQPDRVRDLITNLGYDIVDEMSDPAGAGGGRFEERIYVGKRLAVEPSDLM” as the sequence, how does the “soluble on expression in E. coli” value read?
Answer: Its value is “not soluble”.

Question: Which “soluble on expression in E. coli” value does the source give for “MKAESSNESFIIGQRVHSLNDSRRVGTVKYVGDVEGYSGTWIGVDWDQDGDGKHNGSVNGVFYFNGRSQSSASFVRSQNLSRGITLLQALELRYRTISTKDEEDEMYVLSAGNRRVSIQLLGGDKIQDKLSRFEELTSASLSYLGVSSLGVSSDLGSILPNLKLLDLTGNLISDWEEIGALCEQLPALTTLNLSCNSLSSDIKSLPQLKNIRVLVLNNSGLSWTQVEILRRSLPGIEELHLMGNMISTITSTSSSDDQAFNSLRLLNLDDNCISDWSEVLKLSQLPCLEQLYLNKNKLSRIFQSVNGTESSEKGSDPFPSLSCLLLGANNIGDLASVDALNGFPQLVDIRLSENPISDPVRGGVPRFVLVARLTKVQVLNGSEVRAREKKDSEIRYVRMVMSKLNDKSGEIELLHPRFYELKKLHGIEDERASAENSGPKNIASGLISITLKCVGPSMGEKPHLTKKLPGSITVGKLKILSENFFKLKSIKPRLFLQEEGSPFPTALDDETATLLDVGICDGSTLLVDEES” here?
Answer: The value was “soluble”.

Question: With “MVKQVFNFNAGPSALPKPALERAQKELLNFNDTQMSVMELSHRSQSYEEVHEQAQNLLRELLQIPNDYQILFLQGGASLQFTMLPMNLLTKGTIGNYVLTGSWSEKALKEAKLLGETHIAASTKANSYQSIPDFSEFQLNENDAYLHITSNNTIYGTQYQNFPEINHAPLIADMSSDILSRPLKVNQFGMIYAGAQKNLGPSGVTVVIVKKDLLNTKVEQVPTMLQYATHIKSDSLYNTPPTFSIYMLRNVLDWIKDLGGAEAIAKQNEEKAKIIYDTIDESNGFYVGHAEKGSRSLMNVTFNLRNEELNQQFLAKAKEQGFVGLNGHRSVGGCRASIYNAVPIDACIALRELMIQFKENA” as the sequence, how does the “soluble on expression in E. coli” value read?
Answer: The value was “soluble”.

Question: With “MSLAKNRLRAIPLGGAGEVGRNMWVLEQNDEILVLDCGVMFPEADMLGVDLVLPDITYLRDQKDKIKAIVLTHGHEDHIGAVPYLVPELDFPPIYGTPLTLGMLAGKLKEHRLLDRARLVKMQAGESFTVGSFTIEPFSVAHSIPDTVGLAIDTPVGLAIYLTDWKFDHTPVDGRPTDLVKLSELGRRSPLLLITDCVRVESKGYTPSEQVVGEAFDSIFATAPGRIIVATFASNVSRVQQVIDSAEAYGRKVVVAGRSMENTTRIALELGYLRAQQGTLIRPQEAAGLADDQVAVICTGSQGEPMSALARMANRDYPHVKIKEGDTVVVSATPIPGNEVSVNRVINNLFRLGAEVIYGGSPSSLAVHVSGHAAQEELKMALAILRPEFVVPFHGDYRHMMLYRKLALGMGGLFSESNVIIPENEGHHHHHH” as the sequence, how does the “soluble on expression in E. coli” value read?
Answer: Its value is “not soluble”.

Question: For “MEDDDLLPLSALQHYLYCPRQCALIHLEQQWEDNAQTAEGRLLHERADKPAMETRRGVRTASAMALASPRLGIAGVADIVEFHDWSDGERAYPVEYKRGRPKAHRADEVQLCAQALCLEDMLGAAIPEGALYYGKTRRRRPVAFDNALRRLTLETIAAARAMFDSRQTPRMGYEARRCDACSLLERCQPRLLDRAQSVDQWLKQQWDALEHHHHHH”, which “soluble on expression in E. coli” value is on record?
Answer: Its value is “not soluble”.

Question: For “EGRATHLQGLVVDITERKEAQKMLEIQRELGAKLNTTWNLHAILNMVLDACLQINGIDAGGVYIRDELLDQINLVQSRGISPEFKEKVSRFKADSNEAKQVWAEKPIYSMDFYSDKMAEAARKEGIKAVAVIPLKYSNEIIGSLNFASH”, which “soluble on expression in E. coli” value is on record?
Answer: The value was “not soluble”.

Question: With “MEAHNQFLKTFQKERHDMKEAEKDEILLMENSRRFVMFPIKYHEIWAAYKKVEASFWTAEEIELAKDTEDFQKLTDDQKTYIGNLLALSISSDNLVNKYLIENFSAQLQNPEGKSFYGFQIMMENIYSEVYSMMVDAFFKDPKNIPLFKEIANLPEVKHKAAFIERWISNDDSLYAERLVAFAAKEGIFQAGNYASMFWLTDKKIMPGLAMANRNICRDRGAYTDFSCLLFAHLRTKPNPKIIEKIITEAVEIEKEYYSNSLPVEKFGMDLKSIHTYIEFVADGLLQGFGNEKYYNAVNPFEFMEDVATAGKTTFFEKKVSDYQKASDMSKSATPSKEINFDDDF” as the sequence, how does the “soluble on expression in E. coli” value read?
Answer: The value was “soluble”.

Question: For “IVGLRVGAAAEFALSNDGFYLAPGLAYTMRGAKMESLSETTTRLHYLQIPVNAGMRFSFADNMAISLEAGPYFAYGVAGTIKTKVAGVTASVDAFGDNGYNRFDLGLGLSAALSYDRYYVQIGYEHGLLNMLKDAPDKTSLRNHDFFVGLGVRF”, which “soluble on expression in E. coli” value is on record?
Answer: The value was “not soluble”.

Question: Which “soluble on expression in E. coli” value does the source give for “MGHHHHHHSHMRTISFFNNKGGVGKTTLSTNVAHYFALQGKRVLYVDCDPQCNATQLMLTEEQTESIYLDGLNDEVAERNSLAKTVYAIFVPLREGESQIAAEITPMRSERFGVDVLPGHPALSQIEDLMSDSWQSALGRQTGPFRRIHWAGQLAHAMERDDRYDVIFFDVGPSLGPFNRTVLLGCDAFVTPTATDLFSFHAFGNLARWFDAWVTQYAEIHEGNMAEWKKYS” here?
Answer: Its value is “not soluble”.

Question: For “MGSDKIHHHHHHMALIIAGERSGVGKTTTTLTLLAALKARQASVQSFKVGPDYIDPMFHRFVTGRDCRNLDPILTDEDYVQHCFQQHSQTADYTLVEGVMGLFDGLTGKTDTASTAHIARILNLPILLVLNCSSTARSIAAIAYGYQNFDSRLKIAGLVLNRVGSDRHLELLKDALEPLEIPILGVLRRQDEIQIPDRHLGLIPTSELPHLQSVIDRLAVLGQQCFDWNRLEPLLSNSDLNSTAFKSTTPSISLKSSVPIAIARDRAFNFYYADNFDLLRAAGAELIEWSPLQDRQLPAGVQGLYLGGGFPEVFAAELSDNLLARQAVQTAITQGIPCYAECGGLMYLCQHIIDFEQTQYPMVGAIAATAQMGSRLTLGYREATAQQASPLLQKGQVVWGHEFHRSSLREPIAQPLFQLQNFDGSLHYGEGYSQPNLHASYLHLHFGGKPWLIQNFLQACQQATALSR”, which “soluble on expression in E. coli” value is on record?
Answer: The value was “not soluble”.

Question: Which “soluble on expression in E. coli” value does the source give for “MRTSFFAAAALLAVSAFAQAHEYNAGQLHIEHPWALALPPTSPNGAAYFVVQNHGKENDTLLGADTPRAASAEVHEHVHKNGMMSMQKVDSVDVAPGKDLRFAPGGYHLMLMGLKQPLVAGERFPLTLHFRKAGDVPVEIVVESKAPAEQGGHEQHGH” here?
Answer: Its value is “soluble”.

Question: With “MKLERILPFSKTLIKEHIKQDSIVIDATCGNGNDTLFLAQQVSNGHVFGFDIQDTAIQSTFEKVKAFNNVTLIQDGHENIKKHIDIQFKGQIDAAIFNLGYLPKGDKSIVTRPETTIKAINAIFDYLSVEGIIVLVIYHGHAEGQVERDALLDFLEHFDQEKAHILKYQFMNQVNHAPFICAIEKRLEHHHHHH” as the sequence, how does the “soluble on expression in E. coli” value read?
Answer: Its value is “not soluble”.

Question: For “MKEDPRIIKTLSKLQKAFVMLLKTYDAGDINVRQISDEAGVTRGAFYSHFSDKKEFVNFTINELVGSLFNSSLKDSVGFVDEVNHKNAHGTNVLSVSNFFDKVAADYQTYTIVLDTEKLPQFTEVLKERLNSEIKTFAEYYGKKVKHDGFPIEVLSSYYVNGLIGMIRMWLDEGMVYTSHYMANAAKKILGTKIQIDSQNIDLSDFFVDLEHHHHHH”, which “soluble on expression in E. coli” value is on record?
Answer: The value was “soluble”.

Question: Which “soluble on expression in E. coli” value does the source give for “VHFHPFGNVNFYEMDWSLKGDLWAHDPVIAKEGSRWYVFHTGSGIQIKTSEDGVHWENMGWVFPSLPDWYKQYVPEKDEDHLWAPDICFYNGIYYLYYSVSTFGKNTSVIGLATNQTLDPRDPDYEWKDMGPVIHSTASDNYNAIAPNVVFDQEGQPWLSFGSFWSGIQLIQLDTETMKPAAQAELLTIASRGEEPNAIEAPFIVCRNGYYYLFVSFDFCCRGIESTYKIAVGRSKDITGPYVDKNGVSMMQGGGTILDEGNDRWIGPGHCAVYFSGVSAILVNHAYDALKNGEPTLQIRPLYWDDEGWPYLSV” here?
Answer: Its value is “soluble”.

Question: Which “soluble on expression in E. coli” value does the source give for “GPGSMLKRSVSAAARKAGADTLAAAPAAGQQPPSNPLLPYALRRAAACEMLYGGSRVQYLVQPPFTLHKIRSENLPPPSLYAERHDLGLEMQLPRDMHVYNSINMAIQRQVGGDSSTLDGEQQQLQGGHADGFDMGAFFTEQHHPERHHNSSLPYAKHDTNNVLAMRLFPVNVGVRARTEAIRIRTDDCLQRLRDADLCAKMRLPLEHPLPLSRRSQYAAIHRVRQERCYDAPTEAAGERAAAAAEEASRTAHLRGAAAHPPPSELSIVTRPVDRLGSHSGSSAAACTADADHLSFPVHPFAAAAVSSGCHSARSGSAARLASQRWLPLQTLKPMGHNWSAATRSSGVRGPHMQLMQERLDQKGFGWKRKSRSLWQQDVATAGFRPHRYF” here?
Answer: Its value is “soluble”.

Question: Which “soluble on expression in E. coli” value does the source give for “MQLGISKEQAGTVIGGLAGVAIGSTMGSGNGKIAAALIAGGIGAYVGNRIGHMLDEKDQQALALRTQEVLSQQQTTASAQPVTWKSDHSGATAQIVPGKEYTKTKQVEVKRAPKIQAVPSMKLINEPYVTISDNLNVRAAPNQAGEKVGSLKNHTEFTAVGSTGDWILVGRKGVTVGYVHKNYVEPKAQAVAKRVTPAVNLDELDVAASKETQGFDLDSVQSLPTQTVAAEAACRPVTVSLKSLEHHHHHH” here?
Answer: Its value is “soluble”.
